This passage reports Kd results from patent US20240233818 (published 2024).

As usually defined, the Kd is the equilibrium constant for the complex coming apart. Read a high Kd as weaker binding.

Positions count from the first letter of the chain named.

The chains are these.
B1: DART-D (CD137 arm) (antibody, V domains shown)
VH: QVQLQQPGAELVRPGASVKLSCKASGYTFTSYWINWVKQRPGQGLEWIGNIYPSDSYTNYNQKFKDKATLTVDKSSSTAYMQLSSPTSEDSAVYYCTRDYGSSYSFDYWGQGTTLTVSS
VL: DIQMTQTTSSLSASLGDRVTISCRPSQDISNYLNWYQQKPDGTVKLLIYYTSRLRSGVPSRFSGSGSGTDYSLTISNLEQEDIATYFCQQGDTLPYTFGGGTKLEIK
B2: DART-G4 (CD137 arm) (antibody, V domains shown)
VH: QVQLVQSGAEVKKPGASVKVSCKASGYTFTSYWINWVKQAPGQGLEWIGNIYPSDSYTNYNQKFKDKATITADKSTSTAYMELSSLRSEDTAVYYCTRDYGSSYSYNVWGQGTTVTVSS
VL: DIQMTQSPSSLSASVGDRVTITCRPSQDISNYLNWYQQKPDKTVKLLIYYTSRLRSGVPSRFSGSGSGTDFTFTISSLQPEDIATYFCQQGDTLPYTFGQGTKLEIK
B3: DART-G2 (CD137 arm) (antibody, V domains shown)
VH: B2 VH with S103A, Y106M, N107S, V108T
VL: B2 VL
B4: DART-G3 (CD137 arm) (antibody, V domains shown)
VH: B2 VH with S103A, N107S, V108L
VL: B2 VL
B5: DART-G (CD137 arm) (antibody, V domains shown)
VH: B2 VH with Y106F, N107D, V108Y
VL: B2 VL
B6: DART-B (HER2 arm) (antibody, V domains shown)
VH: QVQLVQSGAEVKKPGASVKVSCKASGYTFTNYGMNWVRQAPGQGLEWMGWINTNIGEPTYTEEFKGRVTMTRDTSISTAYMELSRLRSDDTAVYYCARDDGYGNRVSYWGQGTLVTVSS
VL: DIQMTQSPSSLSASVGDRVTITCKASQDISNYLSWFQQKPGKAPKTLIYRANRLQSGVPSRFSGSGSGTDFTLTISSLQPEDFATYYCLQHDEFPWTFGQGTKLEIK

The first test has as its target T1, cynomolgus CD137 (cynomolgus monkey).
T1 chain: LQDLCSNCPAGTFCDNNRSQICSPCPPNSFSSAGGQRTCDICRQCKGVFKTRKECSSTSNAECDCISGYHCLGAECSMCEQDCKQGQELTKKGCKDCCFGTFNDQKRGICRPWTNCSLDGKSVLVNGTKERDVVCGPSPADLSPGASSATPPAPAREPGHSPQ
The experiment in a line: SPR.
B1 gave a Kd of 67 nM.
On the same count and under the same terms, as for B2, the figure is 40 nM; as for B3, 64 nM.
On the same count and under the same terms, as for B4, the figure is 78 nM; as for B5, 115 nM.

Another test deals with human HER2 (human, UniProt P04626). Briefly: SPR. A general note: In SPR one partner is held on a chip, and binding of the other changes the refractive index at the surface.
On to B6, for which the affinity, expressed as Kd, was 0.38 nM.

A further test deals with T2, cynomolgus HER2 (cynomolgus monkey).
T2 chain: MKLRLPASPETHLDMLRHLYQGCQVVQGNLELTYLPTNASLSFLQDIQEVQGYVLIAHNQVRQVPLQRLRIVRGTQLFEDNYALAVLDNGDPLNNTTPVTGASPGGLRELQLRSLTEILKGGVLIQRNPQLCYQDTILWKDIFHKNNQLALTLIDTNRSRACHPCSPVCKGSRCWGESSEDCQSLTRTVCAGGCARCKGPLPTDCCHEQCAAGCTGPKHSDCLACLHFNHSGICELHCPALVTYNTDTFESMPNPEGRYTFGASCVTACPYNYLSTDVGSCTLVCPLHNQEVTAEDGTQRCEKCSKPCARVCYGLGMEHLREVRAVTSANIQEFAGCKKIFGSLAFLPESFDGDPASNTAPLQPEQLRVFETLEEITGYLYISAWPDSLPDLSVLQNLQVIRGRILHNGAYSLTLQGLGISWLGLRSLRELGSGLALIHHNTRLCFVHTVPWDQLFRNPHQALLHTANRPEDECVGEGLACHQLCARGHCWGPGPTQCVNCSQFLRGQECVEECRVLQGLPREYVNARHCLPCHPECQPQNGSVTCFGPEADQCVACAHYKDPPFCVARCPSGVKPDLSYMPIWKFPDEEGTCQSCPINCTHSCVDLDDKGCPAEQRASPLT
Briefly: SPR.
Consider B6, for which the Kd was 0.66 nM.

In the next test the target is human CD137 (human, UniProt Q07011). Briefly: SPR.
Sequence of human CD137 (Q07011 24-186): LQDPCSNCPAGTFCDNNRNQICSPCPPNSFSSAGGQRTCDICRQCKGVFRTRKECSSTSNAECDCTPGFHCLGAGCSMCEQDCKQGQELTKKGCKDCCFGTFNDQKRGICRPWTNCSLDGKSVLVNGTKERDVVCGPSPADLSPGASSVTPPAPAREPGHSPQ
The molecule B1 registered a Kd of 53 nM.
Molecule B2 showed a Kd of 28 nM.
With B3, the dissociation constant (Kd) was 60 nM.
On the same count and under the same terms, as for B4, the figure is 64 nM; as for B5, 114 nM.
